{"source": "patent US20250002610A1", "about": "(Genmab, published 2025)", "key": {"[1]": {"target": "T1, human DR4 (Death Receptor 4), cell surface expressed on human tumor cell lines (human, UniProt O00220 24-468)", "T1 construct": "also called TNFRSF10A; TRAIL-R1", "T1 sequence": "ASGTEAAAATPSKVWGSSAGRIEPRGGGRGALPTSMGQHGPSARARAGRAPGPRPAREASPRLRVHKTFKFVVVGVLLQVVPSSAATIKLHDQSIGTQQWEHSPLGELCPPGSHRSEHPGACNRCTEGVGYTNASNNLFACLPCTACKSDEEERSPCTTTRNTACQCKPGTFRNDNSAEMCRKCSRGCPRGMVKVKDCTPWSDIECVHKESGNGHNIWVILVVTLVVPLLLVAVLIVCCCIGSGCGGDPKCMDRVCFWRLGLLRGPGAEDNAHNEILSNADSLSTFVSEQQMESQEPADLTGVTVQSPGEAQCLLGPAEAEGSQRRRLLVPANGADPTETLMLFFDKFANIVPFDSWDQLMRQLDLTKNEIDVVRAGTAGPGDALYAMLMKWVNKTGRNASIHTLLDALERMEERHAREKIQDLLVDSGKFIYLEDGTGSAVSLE", "experiment": "flow cytometry, HCT-15 cells, n = 3"}, "[2]": {"target": "T1, human DR4 (Death Receptor 4), cell …", "experiment": "flow cytometry, PANC-1 cells, n = 1"}, "[3]": {"target": "T1, human DR4 (Death Receptor 4), cell …", "experiment": "flow cytometry, MDA-MB-231 cells, n = 1"}, "[4]": {"target": "T1, human DR4 (Death Receptor 4), cell …", "experiment": "flow cytometry, MDA-MB-231 cells, average ± SEM"}, "[5]": {"target": "T2, dog FAPα on Expi293F cells (dog (Canis familiaris), UniProt A5D7B7 1-760 (bovine entry))", "T2 chain": "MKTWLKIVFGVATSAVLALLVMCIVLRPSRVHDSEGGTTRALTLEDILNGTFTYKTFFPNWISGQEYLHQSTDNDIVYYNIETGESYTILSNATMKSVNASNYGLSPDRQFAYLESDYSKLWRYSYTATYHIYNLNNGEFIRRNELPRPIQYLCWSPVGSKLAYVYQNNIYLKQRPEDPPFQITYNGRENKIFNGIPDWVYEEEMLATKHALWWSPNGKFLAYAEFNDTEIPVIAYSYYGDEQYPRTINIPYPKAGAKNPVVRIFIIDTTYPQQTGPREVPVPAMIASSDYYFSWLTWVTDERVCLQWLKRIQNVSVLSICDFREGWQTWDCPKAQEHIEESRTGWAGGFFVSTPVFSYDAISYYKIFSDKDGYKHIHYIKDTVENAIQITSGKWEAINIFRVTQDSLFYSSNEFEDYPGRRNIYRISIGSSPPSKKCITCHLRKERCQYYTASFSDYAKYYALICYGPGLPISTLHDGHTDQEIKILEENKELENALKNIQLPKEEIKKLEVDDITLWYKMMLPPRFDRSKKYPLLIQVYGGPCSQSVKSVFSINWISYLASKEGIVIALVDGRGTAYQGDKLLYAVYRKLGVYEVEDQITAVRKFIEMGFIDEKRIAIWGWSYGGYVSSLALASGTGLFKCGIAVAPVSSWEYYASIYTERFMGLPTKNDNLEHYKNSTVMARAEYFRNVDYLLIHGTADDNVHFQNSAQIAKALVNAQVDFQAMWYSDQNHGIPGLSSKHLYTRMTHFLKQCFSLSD", "experiment": "flow cytometry on Expi293F cells transiently expressing dog FAPα, gMFI PE", "procedure": "Binding of BisG1-FAPα-FERL/DR4-FERR, BisG1-FAPα-FEAL/b12-FEAR and IgG1-FAPα-FERL to FAPα of species commonly used for nonclinical toxicology studies was assessed by flow cytometry using Expi293F cells transiently expressing FAPα from different animal species. IgG1-b12 was included as negative control.\nExpi293F cells expressing recombinant FAPα from various species (human, cynomolgus monkey, dog, pig, rat or mouse) were seeded (20,000 cells/well) in 96-Well round bottom plates (Greiner Bio-one, Cat #650101). Antibody dilutions were prepared using FACS buffer, consisting of PBS (Capricorn Scientific, Cat #PBS-10XA, diluted to 1×PBS in distilled water)+1% BSA (Roche, Cat #10735086001)+0.02% Sodium Azide (Bio-World, Cat #41920044-3). Plates were centrifuged, supernatant was removed, and cells were resuspended in 100 μL of antibody dilutions (concentration range 30-0.00017 μg/mL with three-fold serial dilutions using FACS buffer) of BisG1-FAPα-FERL/DR4-FERR, BisG1-FAPα-FEAL/b12-FEAR, IgG1-FAPα-FERL and IgG1-b12 and incubated for 30 min at 4° C. […] After 30 min incubation at 4° C., cells were washed with FACS buffer and resuspended in FACS buffer supplemented with TO-PRO-3 Iodide viability marker (Invitrogen, Cat #T3605, diluted 1:4,000). Antibody binding to viable cells (gMFI of PE on TO-PRO-3 negative cells) was analyzed by flow cytometry on a FACS Celesta and FACS_Diva software (first two experiments) or iQue® 3 and FlowJo software (last experiment). gMFI was determined and visualized using GraphPad Prism. Binding curves were analyzed using nonlinear regression analysis. The concentration (pg/mL) at which 50% of the maximal effect was observed (EC₅₀) was derived from the fitted curves."}}}
{"binder": "BisG1-FAPα-FERL/DR4-FERR (bispecific antibody, human IgG1, kappa, lambda, Human IgG1 bispecific made by controlled Fab-arm exchange of IgG1-FAPα-FERL and IgG1-DR4-FERR; monovalent for FAPα and for DR4; also called GEN1057) heavy 1: EVQLLESGGGLVQPGGSPRLSCEASGFTFSSYALSWVRQAPGKGLEWVSAISGSGGGRYYADSVKGRFTISRDNSKNTLFLQMNSLRAEDTAVYYCAKEGYSSSGTYWDHWGQGTLVTVSSASTKGPSVFPLAPSSKSTSGGTAALGCLVKDYFPEPVTVSWNSGALTSGVHTFPAVLQSSGLYSLSSVVTVPSSSLGTQTYICNVNHKPSNTKVDKRVEPKSCDKTHTCPPCPAPEFERGPSVFLFPPKPKDTLMISRTPEVTCVVVDVSHEDPEVKFNWYVDGVEVHNAKTKPREEQYNSTYRVVSVLTVLHQDWLNGKEYKCKVSNKALPAPIEKTISKAKGQPREPQVYTLPPSREEMTKNQVSLTCLVKGFYPSDIAVEWESNGQPENNYKTTPPVLDSDGSFLLYSKLTVDKSRWQQGNVFSCSVMHEALHNHYTQKSLSLSPG light 1: AIQMTQSPSSVSASVGDRVTITCRASQGVSSWLAWYQQKPGRAPKLLIYVASTLQSGVPSRFSGSGSGTDFTLTINSLQPEDFATYYCQQANSFPPTFGQGTRLEMKRTVAAPSVFIFPPSDEQLKSGTASVVCLLNNFYPREAKVQWKVDNALQSGNSQESVTEQDSKDSTYSLSSTLTLSKADYEKHKVYACEVTHQGLSSPVTKSFNRGEC heavy 2: QVQLQESGPGLVKPSGTLSLTCAVSGGSISSYSWWSWIRQPPGKGLEWIGELYHSGSTNYNPSLKSRVTISVDKSKNQFSLKLRSVTAADTAVYYCVRGVATIDYWGQGTLVTVSSASTKGPSVFPLAPSSKSTSGGTAALGCLVKDYFPEPVTVSWNSGALTSGVHTFPAVLQSSGLYSLSSVVTVPSSSLGTQTYICNVNHKPSNTKVDKRVEPKSCDKTHTCPPCPAPEFERGPSVFLFPPKPKDTLMISRTPEVTCVVVDVSHEDPEVKFNWYVDGVEVHNAKTKPREEQYNSTYRVVSVLTVLHQDWLNGKEYKCKVSNKALPAPIEKTISKAKGQPREPQVYTLPPSREEMTKNQVSLTCLVKGFYPSDIAVEWESNGQPENNYKTTPPVLDSDGSFFLYSRLTVDKSRWQQGNVFSCSVMHEALHNHYTQKSLSLSPG light 2: QSALTQPPSASGSPGQSVTISCTGTSSDVGGYNFVSWYQQDPGKAPKLLIYEVTKRPSGVPDRFSGSKSGNTASLTVSGLQAEDEADYYCSSYAGSNNVMFGGGTKLTVLGQPKAAPSVTLFPPSSEELQANKATLVCLISDFYPGAVTVAWKADSSPVKAGVETTTPSKQSNNKYAASSYLSLTPEQWKSHRSYSCQVTHEGSTVEKTVAPTECS", "values": [{"measurement": "EC50", "setting": "[1]", "result": 0.68, "unit": "µg/mL"}, {"measurement": "EC50", "setting": "[2]", "result": 1.8, "unit": "µg/mL"}, {"measurement": "EC50", "setting": "[3]", "result": 1.12, "unit": "µg/mL"}, {"measurement": "EC50", "setting": "[4]", "result": 0.72, "unit": "µg/mL"}, {"measurement": "binding result", "setting": "[5]", "result": "binds"}]}
